Experimental data taken from PMC12809855, “Biochemical and Mechanistic Insights into O2 Scavenging and Stability of the Soluble Hydrogenase from Hydrogenophaga pseudoflava” (ACS Omega, 2025).

Substrate: NC(=O)c1ccc[n+]([C@@H]2O[C@H](COP(=O)(O)OP(=O)(O)OC[C@H]3O[C@@H](n4cnc5c(N)ncnc54)[C@H](O)[C@@H]3O)[C@@H](O)[C@H]2O)c1
Assay: purified protein
Type: biochemical, Hydrogenophaga pseudoflava
Conditions: H2-saturated buffer, 50 mM Tris-HCl, no additional salt, pH 7, 30 °C, 1 mM TCEP, 1 μM FMN, kcat apparent

B1: HpSH (soluble hydrogenase from Hydrogenophaga pseudoflava, HoxFUYH) (Hydrogenophaga pseudoflava) (protein)
chain: MTAFDQPSALHAADAVLARWQHDPHALVQVLRETQAQTHWLPRELLAHIAAALRLTTAHVEGVASFYRFFHLRPVGRVHVLFSDNITDRMAGSDALMARLCARLGVAPGQVDAQGRFCVDRCSCTGLCDQGPALLVNHHQVVTRLDAGRVDQLAERLLAGVPPEDWPADWFAVEDHVRRADVLLQGLPADAPSLPAVLSRTPAELLAEVERSGLRGRGGAGFPTARKWRACAEADAPDGQRCVVCNADEGEPGTFKDRVLLGRHADELFDGMTLAARAIGAQTGLVYLRGEYRFLLPQLEAVLQRRRANGLLGRNAGGVAGFDFDIAIHLGAGAYVCGEESALIESLEGQRGTPRIRPPFPVQRGYLGRPTVVNNVETLVAVAHIARRGGAWWAGLGTPESTGTKIHSVSGDCERPGLYEYPLGTPLAQILADCGARNAQAVQVGGPSGSCVPASGFHRAIAFEDLPSAGALMVFDQTRDLFEVARHFARFFAHESCGLCTPCRVGTELVVRRLDKLAHERGAGRGSAFDIARLQELDALLHSGTHCGLGVSACNPLRDTLAHFGQAYAQRSTAAQFQPGIDLDAELSSARRATGRQDRGAHLNTEHGA
notes: full-length HoxFUYH heterotetramer, N-terminal Strep-tag on HoxF, coexpressed with endopeptidase HoxW (HoxH C-terminally processed), homologous expression in H. pseudoflava from pOCEx1; no HoxI; preparation has excess HoxF; with NAD-reducing hydrogenase HoxS subunit gamma; NAD-reducing hydrogenase HoxS subunit delta; NAD-reducing hydrogenase HoxS subunit beta
Work on B1 yielded a Km of 400 ± 140 µM and a kcat of 137 ± 20 s⁻¹.
